Source: patent US10450368 (DUKE UNIVERSITY, dated 2019)

T1: Scl-70 (UniProt P11387 1-765)
T1 sequence: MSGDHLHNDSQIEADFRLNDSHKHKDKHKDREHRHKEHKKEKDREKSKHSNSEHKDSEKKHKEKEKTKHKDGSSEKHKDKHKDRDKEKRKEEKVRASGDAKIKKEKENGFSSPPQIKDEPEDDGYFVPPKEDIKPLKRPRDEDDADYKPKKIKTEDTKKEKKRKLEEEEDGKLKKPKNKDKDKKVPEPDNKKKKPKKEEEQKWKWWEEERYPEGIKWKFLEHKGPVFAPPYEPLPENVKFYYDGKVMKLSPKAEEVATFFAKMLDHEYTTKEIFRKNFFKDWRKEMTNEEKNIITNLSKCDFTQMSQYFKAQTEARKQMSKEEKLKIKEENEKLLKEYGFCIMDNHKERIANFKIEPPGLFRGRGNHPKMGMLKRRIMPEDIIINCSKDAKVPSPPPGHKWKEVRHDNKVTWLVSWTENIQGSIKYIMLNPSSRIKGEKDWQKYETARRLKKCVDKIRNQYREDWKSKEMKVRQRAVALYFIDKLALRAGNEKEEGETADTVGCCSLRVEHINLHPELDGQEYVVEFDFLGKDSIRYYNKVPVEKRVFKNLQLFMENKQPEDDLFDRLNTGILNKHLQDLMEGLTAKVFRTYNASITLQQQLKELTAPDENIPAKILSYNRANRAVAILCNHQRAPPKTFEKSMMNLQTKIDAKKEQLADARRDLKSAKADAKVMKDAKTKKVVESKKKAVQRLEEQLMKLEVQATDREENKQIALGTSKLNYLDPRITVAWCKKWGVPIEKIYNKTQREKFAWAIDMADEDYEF

T2: SSB (UniProt P05455 1-408)
T2 sequence: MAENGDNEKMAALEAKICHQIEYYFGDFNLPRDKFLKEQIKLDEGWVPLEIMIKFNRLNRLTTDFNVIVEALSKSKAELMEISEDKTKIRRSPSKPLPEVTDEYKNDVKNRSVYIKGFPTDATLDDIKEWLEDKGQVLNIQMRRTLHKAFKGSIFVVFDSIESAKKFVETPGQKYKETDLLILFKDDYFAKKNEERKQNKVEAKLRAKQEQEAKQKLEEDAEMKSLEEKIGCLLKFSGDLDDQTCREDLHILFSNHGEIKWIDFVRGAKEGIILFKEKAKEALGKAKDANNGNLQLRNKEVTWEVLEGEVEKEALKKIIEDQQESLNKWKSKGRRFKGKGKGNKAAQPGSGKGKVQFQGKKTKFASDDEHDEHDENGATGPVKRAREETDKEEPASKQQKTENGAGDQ

T3: Jo-1 (UniProt P12081 1-509)
T3 sequence: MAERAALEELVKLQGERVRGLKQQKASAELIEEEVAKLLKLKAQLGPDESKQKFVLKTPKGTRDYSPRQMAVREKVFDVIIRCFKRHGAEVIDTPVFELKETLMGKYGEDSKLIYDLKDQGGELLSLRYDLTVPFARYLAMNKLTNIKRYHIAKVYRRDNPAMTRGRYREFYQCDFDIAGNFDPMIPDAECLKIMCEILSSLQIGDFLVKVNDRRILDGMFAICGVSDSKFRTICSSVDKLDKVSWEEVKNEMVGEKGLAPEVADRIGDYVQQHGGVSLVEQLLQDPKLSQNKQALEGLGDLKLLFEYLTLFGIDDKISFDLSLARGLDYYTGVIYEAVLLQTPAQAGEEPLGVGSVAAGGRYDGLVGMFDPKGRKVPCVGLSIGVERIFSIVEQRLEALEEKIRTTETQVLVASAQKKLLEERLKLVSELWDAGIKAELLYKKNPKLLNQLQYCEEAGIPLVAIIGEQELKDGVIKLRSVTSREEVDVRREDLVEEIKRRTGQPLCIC

T4: Centromere B (UniProt P07199 1-599)
T4 construct: also called Cent B
T4 sequence: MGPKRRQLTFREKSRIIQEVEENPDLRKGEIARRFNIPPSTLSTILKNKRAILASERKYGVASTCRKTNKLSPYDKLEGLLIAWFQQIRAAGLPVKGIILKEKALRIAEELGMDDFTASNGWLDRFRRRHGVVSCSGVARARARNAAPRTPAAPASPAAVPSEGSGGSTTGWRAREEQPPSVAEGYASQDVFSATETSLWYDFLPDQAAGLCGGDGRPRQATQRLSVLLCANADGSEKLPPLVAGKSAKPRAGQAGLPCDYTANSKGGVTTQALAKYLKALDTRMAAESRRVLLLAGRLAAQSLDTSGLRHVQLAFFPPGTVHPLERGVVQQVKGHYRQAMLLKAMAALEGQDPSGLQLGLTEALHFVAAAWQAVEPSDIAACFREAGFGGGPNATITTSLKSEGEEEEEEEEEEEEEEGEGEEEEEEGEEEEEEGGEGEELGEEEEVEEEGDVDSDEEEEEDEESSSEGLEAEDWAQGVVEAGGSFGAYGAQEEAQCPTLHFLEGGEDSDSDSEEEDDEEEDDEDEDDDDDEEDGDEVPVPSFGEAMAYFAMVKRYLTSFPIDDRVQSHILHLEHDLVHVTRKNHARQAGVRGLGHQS

T5: STUB-1 (human, UniProt Q9UNE7 1-303)
T5 sequence: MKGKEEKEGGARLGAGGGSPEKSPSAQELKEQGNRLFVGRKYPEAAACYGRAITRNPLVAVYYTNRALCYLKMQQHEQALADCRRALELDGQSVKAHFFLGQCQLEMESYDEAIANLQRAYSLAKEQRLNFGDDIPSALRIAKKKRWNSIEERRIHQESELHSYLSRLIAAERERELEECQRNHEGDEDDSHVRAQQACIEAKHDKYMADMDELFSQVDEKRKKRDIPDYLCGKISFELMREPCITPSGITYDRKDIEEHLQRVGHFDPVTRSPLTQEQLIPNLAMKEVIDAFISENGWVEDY

B1: CH493 (antibody, V domains shown)
VH: QVRLLQYGGGVKRPGASMTISCVASGYNFNDYYIHWVRQAPGQGLELMGWIDPSGGRTDYAGAFGDRVSMYRDKSMNTLYMDLRSLRSGDTAMYYCVRNVGTAGSLLHYDHWGLGVMVTVSS
VL: EIVLTQSPATLSVSPGERVTLSCRASQSVRNNLAWYRQKRGQAPRLLIYGASTRATGIPARFSGSGSGTEFTLTISSMQSEDFAVYYCQQYNNWWTFGQGTKVEIK
notes: also called CH235.9; DH493
B2: CH557 (antibody, V domains shown)
VH: QVRLAQYGGGVKRLGATMTLSCVASGYTFNDYYIHWVRQAPGQGFELLGYIDPANGRPDYAGALRERLSFYRDKSMETLYMDLRSLRYDDTAMYYCVRNVGTAGSLLHYDHWGSGSPVIVSS
VL: EIVLTQSPATLSASPGERVTLTCRASRSVRNNVAWYQHKGGQSPRLLIYDASTRAAGVPARFSGSASGTEFTLAISNLESEDFTVYFCLQYNNWWTFGQGTRVDIK
notes: also called CH235.12; CH557_4A/293i

Experiments:
RNP (ribonucleoprotein) [1] = biological target: T6, RNP (ribonucleoprotein); assay: AtheNA, Ab 6.25 ug/ml
T6 construct: Protein-RNA complex
From the text: (§1) AtheNA Multi-Lyte ANA Plus Test System is one such assay. This is luminex-based assay, which is also used to screen patient sera.

Scl-70 [2] = biological target: T1, Scl-70; assay: AtheNA, Ab 6.25 ug/ml
From the text: as §1

Histones [3] = biological target: T7, Histones; assay: AtheNA, Ab 6.25 ug/ml
T7 construct: Mixture of proteins
From the text: as §1

SSB = biological target: T2, SSB; assay: AtheNA, Ab 25 ug/ml
Sm (Smith antigen) = biological target: T8, Sm (Smith antigen); assay: AtheNA, Ab 25 ug/ml
T8 construct: Protein complex

RNP (ribonucleoprotein) [4] = biological target: T6, RNP (ribonucleoprotein); assay: AtheNA, Ab 25 ug/ml
Scl-70 [5] = biological target: T1, Scl-70; assay: AtheNA, Ab 25 ug/ml
Jo-1 = biological target: T3, Jo-1; assay: AtheNA, Ab 25 ug/ml
Centromere B = biological target: T4, Centromere B; assay: AtheNA, Ab 25 ug/ml
Histones [6] = biological target: T7, Histones; assay: AtheNA, Ab 25 ug/ml
STUB-1 = biological target: T5, STUB-1; assay: ProtoArray human protein microarray

Row | Binder | AtheNA signal (RNP (ribonucleoprotein) [1]) | AtheNA signal (Scl-70 [2]) | AtheNA signal (Histones [3]) | AtheNA signal (SSB) | AtheNA signal (Sm (Smith antigen)) | AtheNA signal (RNP (ribonucleoprotein) [4]) | AtheNA signal (Scl-70 [5]) | AtheNA signal (Jo-1) | AtheNA signal (Centromere B) | AtheNA signal (Histones [6]) | binding result (STUB-1)
1 | B1 | 32 | 17 | 174 |  |  |  |  |  |  |  | 
2 | B2 |  |  |  | 12 relative luminescence units | 6 relative luminescence units | 6 relative luminescence units | 4 relative luminescence units | 2 relative luminescence units | 25 relative luminescence units | 8 relative luminescence units | no binding
